The text below walks through data of patent US7037662 (dated 2006).

To fix the notation:
T1: soluble HEK (sHEK), complete extracellular domain (exodomain) of HEK encoded by exons I-VII (human, UniProt P29320 21-541)
T1 construct: extracellular domain; Untagged soluble exodomain from CHO cells; also called HEK exodomain
T1 sequence (looked up): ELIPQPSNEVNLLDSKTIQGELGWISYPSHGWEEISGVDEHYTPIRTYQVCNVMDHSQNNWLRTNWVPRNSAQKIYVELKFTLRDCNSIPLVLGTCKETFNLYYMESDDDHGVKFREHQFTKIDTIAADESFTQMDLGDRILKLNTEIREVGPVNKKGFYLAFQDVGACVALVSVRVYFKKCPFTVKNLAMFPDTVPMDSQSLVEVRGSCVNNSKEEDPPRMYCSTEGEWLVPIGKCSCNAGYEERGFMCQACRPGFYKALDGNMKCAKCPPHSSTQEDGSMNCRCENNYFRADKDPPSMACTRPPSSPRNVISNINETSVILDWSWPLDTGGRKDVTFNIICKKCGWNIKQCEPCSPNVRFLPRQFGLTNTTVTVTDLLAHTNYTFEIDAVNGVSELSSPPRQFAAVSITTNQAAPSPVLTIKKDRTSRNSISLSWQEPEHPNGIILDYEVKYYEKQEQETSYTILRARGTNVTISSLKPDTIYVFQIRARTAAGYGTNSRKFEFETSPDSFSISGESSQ

T2: LERK 7-FLAG (monovalent LERK7/AL-1 with N-terminal FLAG peptide) (human, UniProt P52803 21-203, limits assumed)
T2 construct: domain: mature protein stopped before the hydrophobic tail; also called soluble LERK7
T2 sequence (looked up): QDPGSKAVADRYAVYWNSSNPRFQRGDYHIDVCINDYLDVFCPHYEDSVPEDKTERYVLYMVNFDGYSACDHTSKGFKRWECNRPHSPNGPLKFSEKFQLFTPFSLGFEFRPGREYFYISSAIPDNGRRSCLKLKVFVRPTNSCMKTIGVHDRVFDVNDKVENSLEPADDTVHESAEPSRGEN

B1: LERK 4-Fc fusion protein (Fc fusion, UniProt P52798 26-170, looked up)
chain: LRHVVYWNSSNPRLLRGDAVVELGLNDYLDIVCPHYEGPGPPEGPETFALYMVDWPGYESCQAEGPRAYKRWVCSLPFGHVQFSEKIQRFTPFSLGFEFLPGETYYYISVPTPESSGQCLRLQVSVCCKERKSESAHPVGSPGES
notes: not shown: human Fc domain
B2: LERK 5-Fc fusion protein (Fc fusion, UniProt P52799 28-229, looked up)
chain: IVLEPIYWNSSNSKFLPGQGLVLYPQIGDKLDIICPKVDSKTVGQYEYYKVYMVDKDQADRCTIKKENTPLLNCAKPDQDIKFTIKFQEFSPNLWGLEFQKNKDYYIISTSNGSLEGLDNQEGGVCQTRAMKILMKVGQDASSAGSTRNKDPTRRPELEAGTNGRSSTTSPFVKPNPGSSTDGNSAGHSGNNILGSEVALFA
notes: not shown: human Fc domain
B3: LERK 3-Fc fusion protein (Fc fusion, UniProt P52797 23-214, looked up)
chain: QGPGGALGNRHAVYWNSSNQHLRREGYTVQVNVNDYLDIYCPHYNSSGVGPGAGPGPGGGAEQYVLYMVSRNGYRTCNASQGFKRWECNRPHAPHSPIKFSEKFQRYSAFSLGYEFHAGHEYYYISTPTHNLHWKCLRMKVFVCCASTSHSGEKPVPTLPQFTMGPNVKINVLEDFEGENPQVPKLEKSISG
notes: not shown: human Fc domain
B4: LERK7-Fc fusion protein (Fc fusion, UniProt P52803 21-203, looked up)
chain: QDPGSKAVADRYAVYWNSSNPRFQRGDYHIDVCINDYLDVFCPHYEDSVPEDKTERYVLYMVNFDGYSACDHTSKGFKRWECNRPHSPNGPLKFSEKFQLFTPFSLGFEFRPGREYFYISSAIPDNGRRSCLKLKVFVRPTNSCMKTIGVHDRVFDVNDKVENSLEPADDTVHESAEPSRGEN
notes: not shown: Fc and hinge regions of human IgG1
B5: HEK I-VII (N-terminally FLAG-tagged HEK exodomain, exons I-VII) (receptor, human, UniProt P29320 21-541, looked up, not shown: small tags and cut ends)
chain: ELIPQPSNEVNLLDSKTIQGELGWISYPSHGWEEISGVDEHYTPIRTYQVCNVMDHSQNNWLRTNWVPRNSAQKIYVELKFTLRDCNSIPLVLGTCKETFNLYYMESDDDHGVKFREHQFTKIDTIAADESFTQMDLGDRILKLNTEIREVGPVNKKGFYLAFQDVGACVALVSVRVYFKKCPFTVKNLAMFPDTVPMDSQSLVEVRGSCVNNSKEEDPPRMYCSTEGEWLVPIGKCSCNAGYEERGFMCQACRPGFYKALDGNMKCAKCPPHSSTQEDGSMNCRCENNYFRADKDPPSMACTRPPSSPRNVISNINETSVILDWSWPLDTGGRKDVTFNIICKKCGWNIKQCEPCSPNVRFLPRQFGLTNTTVTVTDLLAHTNYTFEIDAVNGVSELSSPPRQFAAVSITTNQAAPSPVLTIKKDRTSRNSISLSWQEPEHPNGIILDYEVKYYEKQEQETSYTILRARGTNVTISSLKPDTIYVFQIRARTAAGYGTNSRKFEFETSPDSFSISGESSQ
notes: extracellular domain; CHO cell product; in the zebrafish experiments expressed from injected mRNA; also called HEK-FLAG
B6: HEK I-III (FLAG-tagged HEK subdomain construct, exons I-III) (receptor, not shown: small tags and cut ends)
chain: ELIPQPSNEVNLLDSKTIQGELGWISYPSHGWEEISGVDEHYTPIRTYQVCNVMDHSQNNWLRTNWVPRNSAQKIYVELKFTLRDCNSIPLVLGTCKETFNLYYMESDDDHGVKFREHQFTKIDTIAADESFTQMDLGDRILKLNTEIREVGPVNKKGFYLAFQDVGACVALVSVRVYFKKCPFTVKNLAMFPDTVPMDSQSLVEVRGSCVNNSKEEDPPRMYCSTEGEWLVPIGKCSCNAGYEERGFMCQ
notes: Native signal peptide (residues 1-20) replaced by IL3 signal and FLAG

For one assay, the target named is T1, soluble HEK (sHEK), complete …. Put plainly: BIAcore, apparent KD from equilibrium responses, LERK-Fc over immobilised HEK. The method, then:
Figure 2C: FIG. 2C: Expression of soluble HEK (sHEK) polypeptides encoded by the constructs shown in B. sHEK in lane 1 corresponds to the complete extracellular domain (exodomain) of HEK encoded by exons I–VII. […] Samples (50 μl) of purified fusion proteins comprising the human Fc domain and either LERK 1, 2, 3, 4, 5 and 7 at 10 μg/ml in BIAcore running buffer were applied onto an sHEK-derivatised sensor chip. The responses were recorded 20 s after completion of the injection phase and are shown as relative BIAcore response units, (RU) compared to the response of an equal amount of human Fc domain used as a control in this experiment.
Receptor-ligand interactions within the Eph family RTKs has mainly been studied by modified indirect Scatchard analysis of human IgG-Fc fusion proteins of ligands or receptors binding to receptor or ligand transfected cells, respectively (Beckmann et al., 1994, supra; Davis et al., 1994, supra; Ceretti et al., 1995, supra: Bennett et at., 1995). To evaluate if BIAcore analysis also detected the interaction of various LERKs with HEK, we compared the binding of bivalent, Fc-fusion proteins of LERK (LERKS 1 to 5) and LERK 7 (FIG. 2C) to sensor chip-immobilised HEK exodomain. Each ligand sample was injected at concentrations between 0.1–10 µg/ml (approximately 0.8 to 80 nM) across the sensor chip. A sample containing 10 µg/ml of the recombinant Human Fc fragment was used as a control.
(SPR reads the build-up and loss of mass on a sensor chip optically.)
For the molecule B1, the Kd was 6 nM.
As for B2, the Kd came out at 24 nM.
Take B3: the Kd stood at 5 nM.
Still for that read-out and setting: for B4 the value was 3 nM.

A further assay concerns the target T2, LERK 7-FLAG (monovalent LERK7/AL-1 with …). Put plainly: BIAcore in-solution competition; 40 nM LERK 7 with increasing competitor injected onto an sHEK-derivatised sensor chip; residual response as % of the response without competitor. The method, then: The binding of various HEK constructs and derived peptides was analysed on the BIAcore optical biosensor (Pharmacia Biosensor, Sweden) using purified soluble HEK (corresponding to the entire extracellular domain) or LERK 7-FLAG derivatised CM 5 sensor chips and the interaction kinetics determined. The immobilization of HEK onto the sensor chip surface was performed essentially as described by Lackmann et al, 1996. LERK7-FLAG (47 μg/ml in 20 mM sodium acetate, pH 4.5) was coupled at 5 μl/min onto N-hydroxysuccinimide (NHS, 0.05 M)/N-hydroxysuccinimide-N-ethyl-N'-([…]) carbodiimide(EDC, 0.2 M) activated sensor chips (45 μl, 2 μl/min) to yield an increase in the response level of 2500–3000 response units (RU).
Figure 2F: FIG. 2F: Samples containing 40 nM LERK 7 and 1 nM—10 μM synthetic peptide encoded by exons I and II of the HEK gene (Δ), 10 nM—1 μM HEK I–VII (o), 10 nM—1 μM HEK IV–VII (x) or 1 nM—1 μM HEK I-III (□) were injected onto an sHEK-derivatised sensor chip. The residual responses are illustrated as percentage of the total response in the absence of competitor.
As to B5, the “IC50 (read off the curve)” value is about 0.09 µM.
On to B6, for which the “IC50 (read off the curve)” value is about 0.07 µM.
